{
  "source": "paper PMC7101349",
  "about": "“Synthetic antibodies against BRIL as universal fiducial marks for single−particle cryoEM structure determination of membrane proteins” (Nature Communications, 2020)",
  "conditions_in_all_cases": "both partners purified",
  "key": {"His10-BRIL": {"target": "T1, His10-BRIL (Escherichia coli (engineered cytochrome …, stabilised))", "T1 construct": "BRIL, an engineered variant of apocytochrome b562; Immobilised by its N-terminal His10 tag for SPR; also called wt BRIL; source: E. coli BL21 (DE3), purified (Ni-NTA); not shown: His10, N-terminal, kept", "test": "SPR; His10-BRIL immobilised on a nitrilotriacetic acid sensor chip via the N-terminal His10 tag; 2-fold dilution series of sABs at 30 μl/min; 20 °C; BIACORE 3000; 1:1 interaction model"}, "[1]": {"target": "T2, BRIL-3turn-KcsA (construct 8) (Escherichia coli (engineered cytochrome …, chimera))", "T2 construct": "BRIL, an engineered variant of apocytochrome b562, in place of the N-terminal helix of KcsA; helical linker, 3 turn; potassium channel KcsA; the N-terminal helix (residues 1-23) replaced by BRIL and linker; source: E. coli BL21(DE3)plysS, purified (Talon, SEC) in DDM", "test": "SEC; analytical SEC (aSEC): BRIL-fused targets (in detergent, nanodiscs or amphipols) mixed with 1.2–1.5-fold molar excess of sAB, 30 min on ice; Superdex 200 Increase or Superose 6 Increase; retention volume and gel electrophoresis"}, "[2]": {"target": "T3, BRIL-AAAA-KcsA (construct 3, 1 turn) (Escherichia coli (engineered cytochrome …, chimera))", "T3 construct": "BRIL, an engineered variant of apocytochrome b562, in place of the N-terminal helix of KcsA; helical linker, 1 turn; potassium channel KcsA; the N-terminal helix (residues 1-23) replaced by BRIL and linker; also called four residues or 1 turn (-AAAA-) linker construct; source: E. coli BL21(DE3)plysS, purified (Talon, SEC) in DDM", "test": "SEC; analytical SEC (aSEC): BRIL-fused targets (in detergent, nanodiscs or amphipols) mixed with 1.2–1.5-fold molar excess of sAB, 30 min on ice; Superdex 200 Increase or Superose 6 Increase; retention volume and gel electrophoresis"}, "[3]": {"target": "T4, BRIL-2turn-KcsA (construct 7) (Escherichia coli (engineered cytochrome …, chimera))", "T4 construct": "BRIL, an engineered variant of apocytochrome b562, in place of the N-terminal helix of KcsA; helical linker, 2 turn; potassium channel KcsA; the N-terminal helix (residues 1-23) replaced by BRIL and linker; also called construct with 2-turn linker; source: E. coli BL21(DE3)plysS, purified (Talon, SEC) in DDM", "test": "SEC; analytical SEC (aSEC): BRIL-fused targets (in detergent, nanodiscs or amphipols) mixed with 1.2–1.5-fold molar excess of sAB, 30 min on ice; Superdex 200 Increase or Superose 6 Increase; retention volume and gel electrophoresis"}, "[4]": {"target": "T5, BRIL-AAAAA-KcsA (construct 4) (Escherichia coli (engineered cytochrome …, chimera))", "T5 construct": "BRIL, an engineered variant of apocytochrome b562, in place of the N-terminal helix of KcsA; helical linker; potassium channel KcsA; the N-terminal helix (residues 1-23) replaced by BRIL and linker; also called five residues (-AAAAA-) linker construct; source: E. coli BL21(DE3)plysS, purified (Talon, SEC) in DDM", "test": "SEC; analytical SEC (aSEC): BRIL-fused targets (in detergent, nanodiscs or amphipols) mixed with 1.2–1.5-fold molar excess of sAB, 30 min on ice; Superdex 200 Increase or Superose 6 Increase; retention volume and gel electrophoresis"}, "[5]": {"target": "T6, BRIL-AARAAAA-KcsA (construct 6) (Escherichia coli (engineered cytochrome …, chimera))", "T6 construct": "BRIL, an engineered variant of apocytochrome b562, in place of the N-terminal helix of KcsA; helical linker; potassium channel KcsA; the N-terminal helix (residues 1-23) replaced by BRIL and linker; also called seven residues (-AARAAAA-) linker construct; source: E. coli BL21(DE3)plysS, purified (Talon, SEC) in DDM", "test": "SEC; analytical SEC (aSEC): BRIL-fused targets (in detergent, nanodiscs or amphipols) mixed with 1.2–1.5-fold molar excess of sAB, 30 min on ice; Superdex 200 Increase or Superose 6 Increase; retention volume and gel electrophoresis"}, "[6]": {"target": "T7, BRIL-AARAAA-KcsA (construct 5) (Escherichia coli (engineered cytochrome …, chimera))", "T7 construct": "BRIL, an engineered variant of apocytochrome b562, in place of the N-terminal helix of KcsA; helical linker; potassium channel KcsA; the N-terminal helix (residues 1-23) replaced by BRIL and linker; also called six residues (-AARAAA-) linker construct; source: E. coli BL21(DE3)plysS, purified (Talon, SEC) in DDM", "test": "SEC; analytical SEC (aSEC): BRIL-fused targets (in detergent, nanodiscs or amphipols) mixed with 1.2–1.5-fold molar excess of sAB, 30 min on ice; Superdex 200 Increase or Superose 6 Increase; retention volume and gel electrophoresis"}, "[7]": {"target": "T8, BRIL-AAA-KcsA (construct 2) (Escherichia coli (engineered cytochrome …, chimera))", "T8 construct": "BRIL, an engineered variant of apocytochrome b562, in place of the N-terminal helix of KcsA; helical linker; potassium channel KcsA; the N-terminal helix (residues 1-23) replaced by BRIL and linker; also called three residues (-AAA-) linker construct; source: E. coli BL21(DE3)plysS, purified (Talon, SEC) in DDM", "test": "SEC; analytical SEC (aSEC): BRIL-fused targets (in detergent, nanodiscs or amphipols) mixed with 1.2–1.5-fold molar excess of sAB, 30 min on ice; Superdex 200 Increase or Superose 6 Increase; retention volume and gel electrophoresis"}},
  "data": [
    {"binder": "sAB24 (Fab, V domains shown, as the heavy chain of m3 (BAG2), with CDR-H1 32-37 FSSSSI in place of VVDFSL; as the light chain of m3 (BAG2); Parent of BAG2; also called wt sAB24; wt sAB; source: E. coli BL21(gold), purified) VH: EVQLVESGGGLVQPGGSLRLSCAASGFNFSSSSIHWVRQAPGKGLEWVAYISSSSGSTSYADSVKGRFTISADTSKNTAYLQMNSLRAEDTAVYYCARWGYWPGEPWWKAFDYWGQGTLVTVSS VL: DIQMTQSPSSLSASVGDRVTITCRASQSVSSAVAWYQQKPGKAPKLLIYSASSLYSGVPSRFSGSRSGTDFTLTISSLQPEDFATYYCQQYLYYSLVTFGQGTKVEIK", "values": [
      {"measurement": "Kd", "setting": "His10-BRIL", "value": "~23", "unit": "nM"}
    ]},
    {"binder": "sAB BAG2 (Fab, V domains shown, Fab heavy chain; CDR-H1 residues 32-37 are VVDFSL; Fab light chain; humanized Fab scaffold of phage library E; source: E. coli BL21(gold), purified) VH: EVQLVESGGGLVQPGGSLRLSCAASGFNVVDFSLHWVRQAPGKGLEWVAYISSSSGSTSYADSVKGRFTISADTSKNTAYLQMNSLRAEDTAVYYCARWGYWPGEPWWKAFDYWGQGTLVTVSS VL: DIQMTQSPSSLSASVGDRVTITCRASQSVSSAVAWYQQKPGKAPKLLIYSASSLYSGVPSRFSGSRSGTDFTLTISSLQPEDFATYYCQQYLYYSLVTFGQGTKVEIK", "values": [
      {"measurement": "Kd", "setting": "His10-BRIL", "value": "~0.3", "unit": "nM"},
      {"measurement": "stoichiometry N", "setting": "[1]", "value": 4},
      {"measurement": "stoichiometry N", "setting": "[2]", "value": 4},
      {"measurement": "stoichiometry N", "setting": "[3]", "value": 4},
      {"measurement": "stoichiometry N", "setting": "[4]", "value": 4},
      {"measurement": "stoichiometry N", "setting": "[5]", "value": 4},
      {"measurement": "stoichiometry N", "setting": "[6]", "value": 4},
      {"measurement": "stoichiometry N", "setting": "[7]", "value": 4}
    ]},
    {"binder": "BAG2 F35A (Fab, V domains shown, as the heavy chain of m3 (BAG2) with the stated change in CDR-H1; as the light chain of m3 (BAG2)) VH: EVQLVESGGGLVQPGGSLRLSCAASGFNVVDASLHWVRQAPGKGLEWVAYISSSSGSTSYADSVKGRFTISADTSKNTAYLQMNSLRAEDTAVYYCARWGYWPGEPWWKAFDYWGQGTLVTVSS VL: DIQMTQSPSSLSASVGDRVTITCRASQSVSSAVAWYQQKPGKAPKLLIYSASSLYSGVPSRFSGSRSGTDFTLTISSLQPEDFATYYCQQYLYYSLVTFGQGTKVEIK", "values": [
      {"measurement": "Kd", "setting": "His10-BRIL", "value": 7.6, "unit": "nM"}
    ]},
    {"binder": "BAG2 S36A (Fab, V domains shown, as the heavy chain of m3 (BAG2) with the stated change in CDR-H1; as the light chain of m3 (BAG2)) VH: EVQLVESGGGLVQPGGSLRLSCAASGFNVVDFALHWVRQAPGKGLEWVAYISSSSGSTSYADSVKGRFTISADTSKNTAYLQMNSLRAEDTAVYYCARWGYWPGEPWWKAFDYWGQGTLVTVSS VL: DIQMTQSPSSLSASVGDRVTITCRASQSVSSAVAWYQQKPGKAPKLLIYSASSLYSGVPSRFSGSRSGTDFTLTISSLQPEDFATYYCQQYLYYSLVTFGQGTKVEIK", "values": [
      {"measurement": "Kd", "setting": "His10-BRIL", "value": 5.3, "unit": "nM"}
    ]}
  ]
}
